{
  "source": "paper PMC4627807",
  "about": "“Klotho Regulates 14-3-3ζ Monomerization and Binding to the ASK1 Signaling Complex in Response to Oxidative Stress” (PLoS ONE, 2015)",
  "key": {"14-3-3ζ": {"molecular_target": "T1, 14-3-3ζ (human (endogenous in HEK 293), UniProt P63104 1-245)", "T1 construct": "14-3-3ζ, endogenous in HEK 293 cells; Klotho treatment of the cells raises phosphorylation at Ser-58 and the monomer level; the phosphorylated form was not isolated as a molecule of its own; also called 14-3-3zeta; endogenous 14-3-3ζ; source: endogenous, HEK 293 lysate", "T1 sequence (looked up)": "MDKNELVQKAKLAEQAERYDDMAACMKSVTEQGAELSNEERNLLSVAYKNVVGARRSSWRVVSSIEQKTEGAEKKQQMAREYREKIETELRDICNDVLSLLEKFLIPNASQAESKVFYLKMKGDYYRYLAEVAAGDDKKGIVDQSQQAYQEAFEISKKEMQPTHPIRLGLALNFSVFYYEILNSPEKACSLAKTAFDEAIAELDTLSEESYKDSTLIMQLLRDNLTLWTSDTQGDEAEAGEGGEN", "experiment": "co-IP; endogenous proteins; HEK 293 lysate precipitated with 14-3-3ζ antibody, protein A agarose; Trx by Western blot; cells treated with buffer, 200 pM Klotho or NAC for 40 min; Trx released from the beads only with DTT, 2-ME or THP", "details": "partners not purified"}, "[1]": {"molecular_target": "GST-tagged 14-3-3ζ dimer deficient mutant (Dm) (UniProt P63104)", "experiment": "pull-down; lysates of HEK 293 cells transfected with GST-14-3-3ζ Wt or Dm adsorbed onto glutathione sepharose, binding buffer 20 mM Tris-Cl pH 7.5, 2 mM EDTA, 1 mM EGTA, 80 mM NaCl; endogenous Trx by Western blot; cells treated with buffer or secreted Klotho for 40 min"}},
  "data": [
    {"binder": "thioredoxin (Trx) (natural protein, human (endogenous in HEK 293), UniProt P10599 1-105, looked up, thioredoxin (Trx), endogenous in HEK 293 cells; active site cysteines named as Cys32/35; Detected by Western blot or iCE with a Trx antibody; source: endogenous, HEK 293 lysate) MVKQIESKTAFQEALDAAGDKLVVVDFSATWCGPCKMIKPFFHSLSEKYSNVIFLEVDVDDCQDVASECEVKCMPTFQFFKKGQKVGEFSGANKEKLEATINELV", "values": [
      {"measurement": "fold increase of bound Trx, Klotho-treated versus buffer-treated cells", "setting": "14-3-3ζ", "value": "~2", "unit": "fold"},
      {"measurement": "fold increase of bound Trx relative to 14-3-3ζwt", "setting": "[1]", "value": 2, "unit": "fold"}
    ]}
  ]
}
